# From patent US20210095036A1 (University of Pennsylvania, published 2021)
# Changes are numbered by the printed parent chain.
# T1: GFRα4 isoform a (GFRα4a), Fc fusion with 6 His (human)
# T1 construct: the entry holds the whole fusion; also called GFR4α4a; immobilized GFRα4 isoform a
# T1 chain: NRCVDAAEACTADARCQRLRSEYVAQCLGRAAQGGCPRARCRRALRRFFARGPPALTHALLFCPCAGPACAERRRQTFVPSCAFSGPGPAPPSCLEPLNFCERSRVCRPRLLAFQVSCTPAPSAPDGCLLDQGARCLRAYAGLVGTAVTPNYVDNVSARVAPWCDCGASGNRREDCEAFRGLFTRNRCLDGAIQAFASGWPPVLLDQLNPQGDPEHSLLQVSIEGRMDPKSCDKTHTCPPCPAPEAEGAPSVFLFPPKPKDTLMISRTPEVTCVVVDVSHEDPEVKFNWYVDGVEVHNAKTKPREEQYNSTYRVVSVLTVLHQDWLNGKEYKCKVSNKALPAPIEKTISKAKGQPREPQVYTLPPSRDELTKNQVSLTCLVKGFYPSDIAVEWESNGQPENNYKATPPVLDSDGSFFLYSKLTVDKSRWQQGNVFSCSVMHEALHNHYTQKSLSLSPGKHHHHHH
# B1: 12.H2m1.L1m1 (scFv)
# scFv: QFVLTQSPSASASLGASVKLTCTLSSAHKTYTIDWYQQQPEKGPRYLMQVKSDGSYTKGTGVPDRFSGSSSGADRYLTISSLQSEDEADYYCGADDNGGYVFGGGTQLTVTGGGSSRSSSSGGGGSGGGGEQSVKESGGGLVQPGGSLRLSCAASGFTLSRHALTWVRQAPGKGLEWIGAIDNAGTTYYASWAKSRFTISRNTDLHTVYLQMNSLRAEDTAVYFCARVFYDINSGYYLDGMDLWGPGTLVTVSS
# notes: pIII not in the entry; order Vλ-linker-VH; The printed entry has an E before QSVKE of the VH; also called scFv 12
# B2: 10.H2.L1m1 (scFv)
# scFv: QFVLTQSPSASASLGASVKLTCTLSSAHKTYTIDWYQQQPEKGPRYLMQVKSDGSYTKGTGVPDRFSGSSSGADRYLTISSLQSEDEADYYCGADDNGGYVFGGGTQLTVTGGGSSRSSSSGGGGSGGGGEVQLVESGGGLVQPGGSLRLSCAASGFTFSRHALTWVRQAPGKGLEWVSAIDNAGTTYYASWAKSRFTISRDNAKNSLYLQMNSLRAEDTAVYYCARVFYDINSGYYLDGMDLWGPGTLVTVSS
# notes: pIII not in the entry; order Vλ-linker-VH; also called scFv 10
# B3: 29.H2.L1m3 (scFv)
# scFv: B2 scFv with F2L
# notes: pIII not in the entry; order Vλ-linker-VH; The printed VL ends TVT; also called scFv 29
# B4: 21.H2.L1m2 (scFv)
# scFv: B2 scFv with Y36H, V62I, D74E, T111L
# notes: pIII not in the entry; order Vλ-linker-VH; also called scFv 21
# B5: 24.H2.L3m1 (scFv)
# scFv: QFVLTQPASVSGSPGQSITISCTLSSAHKTYTIDWYQQHPGKAPKYLMQVKSDGSYTKGTGVPNRFSGSSSGADRYLTISGLQAEDEADYVCGADDNGGYVFGGGTQLTVTGGGSSRSSSSGGGGSGGGGEVQLVESGGGLVQPGGSLRLSCAASGFTFSRHALTWVRQAPGKGLEWVSAIDNAGTTYYASWAKSRFTISRDNAKNSLYLQMNSLRAEDTAVYYCARVFYDINSGYYLDGMDLWGPGTLVTVSS
# notes: pIII not in the entry; order Vλ-linker-VH; also called scFv 24
# B6: 25.H1.L1m3 (scFv)
# scFv: QLVLTQSPSASASLGASVKLTCTLSSAHKTYTIDWYQQQPEKGPRYLMQVKSDGSYTKGTGVPDRFSGSSSGADRYLTISSLQSEDEADYYCGADDNGGYVFGGGTQLTVLGGGSSRSSSSGGGGSGGGGQVQLQESGPGLVKPSETLSLTCAVSGYSISRHALTWIRQPPGKGLEWIGAIDNAGTTYYASWAKSRVTISVDTSKNQFSLKLSSVTAADTAVYYCARVFYDINSGYYLDGMDLWGPGTLVTVSS
# notes: pIII not in the entry; order Vλ-linker-VH; also called scFv 25
# B7: 14.H1.L1m1 (scFv)
# scFv: B6 scFv with L2F, L111T
# notes: pIII not in the entry; order Vλ-linker-VH; also called scFv 14
# B8: 22.H1.L1m2 (scFv)
# scFv: B6 scFv with L2F, Y36H, V62I, D74E
# notes: pIII not in the entry; order Vλ-linker-VH; also called scFv 22
# B9: 26.H1.L1m4 (scFv)
# scFv: B6 scFv with D34A, Y36H
# notes: pIII not in the entry; order Vλ-linker-VH; also called scFv 26
# B10: 8.H2m1.L2m1 (scFv)
# scFv: QFVLTQPPSASGTPGQRVTISCTLSSAHKTYTIDWYQQLPGTAPKLLIYVKSDGSYTKGTGVPDRFSGSSSGADRYLAISGLQSEDEADYYCGADDNGGYVFGGGTQLTVTGGGSSRSSSSGGGGSGGGGEQSVKESGGGLVQPGGSLRLSCAASGFTLSRHALTWVRQAPGKGLEWIGAIDNAGTTYYASWAKSRFTISRNTDLHTVYLQMNSLRAEDTAVYFCARVFYDINSGYYLDGMDLWGPGTLVTVSS
# notes: pIII not in the entry; order Vλ-linker-VH; The printed entry has an E before QSVKE of the VH; also called scFv 8
# B11: 28.H1.L3m5 (scFv)
# scFv: QSALTQPASVSGSPGQSITISCTGTSAHKTYTVSWYQQHPGKAPKLMIYVKSDGSYTKGTGVPNRFSGSSSGADRYLTISGLQAEDEADYYCGADDNGGYVFGGGTQLTVLGGGSSRSSSSGGGGSGGGGQVQLQESGPGLVKPSETLSLTCAVSGYSISRHALTWIRQPPGKGLEWIGAIDNAGTTYYASWAKSRVTISVDTSKNQFSLKLSSVTAADTAVYYCARVFYDINSGYYLDGMDLWGPGTLVTVSS
# notes: pIII not in the entry; order Vλ-linker-VH; also called scFv 28
# B12: 27.H1.L3m4 (scFv)
# scFv: B11 scFv with L46Y, M47L, I48M, Y49Q
# notes: pIII not in the entry; order Vλ-linker-VH; also called scFv 27
# B13: 17.H1.L3m2 (scFv)
# scFv: B11 scFv with S2F, A3V, G24L, T25S, V33I, S34D, Y49Q, P63S
# notes: pIII not in the entry; order Vλ-linker-VH; also called scFv 17
# B14: 18.H1.L3m3 (scFv)
# scFv: B11 scFv with V33I, S34D, P63S, S70K, A73N, D74T, R75A, Y76S
# notes: pIII not in the entry; order Vλ-linker-VH; also called scFv 18
# B15: 4.H1m1.L3m1 (scFv)
# scFv: QFVLTQPASVSGSPGQSITISCTLSSAHKTYTIDWYQQHPGKAPKYLMQVKSDGSYTKGTGVPNRFSGSSSGADRYLTISGLQAEDEADYVCGADDNGGYVFGGGTQLTVTGGGSSRSSSSGGGGSGGGGQQSVKESGPGLVKPSETLSLTCAVSGFSLSRHALTWVRQPPGKGLEWIGAIDNAGTTYYASWAKSRVTISRNTDLHTVSLKLSSVTAADTAVYFCARVFYDINSGYYLDGMDLWGPGTLVTVSS
# notes: pIII not in the entry; order Vλ-linker-VH; also called scFv 4
# B16: 19.H2.L2m2 (scFv)
# scFv: QFVLTQPPSASGTPGQRVTISCTLSSAHKTYTIDWYQQLPGTAPKLLIYVKSDGSYTKGTGVPDRFSGSSSGADASLAISGLQSEDEADYYCGADDNGGYVFGGGTQLTVLGGGSSRSSSSGGGGSGGGGEVQLVESGGGLVQPGGSLRLSCAASGFTFSRHALTWVRQAPGKGLEWVSAIDNAGTTYYASWAKSRFTISRDNAKNSLYLQMNSLRAEDTAVYYCARVFYDINSGYYLDGMDLWGPGTLVTVSS
# notes: pIII not in the entry; order Vλ-linker-VH; also called scFv 19
# B17: 20.H2.L2m3 (scFv)
# scFv: B16 scFv with F2S, S70K, A73T, D74S
# notes: pIII not in the entry; order Vλ-linker-VH; also called scFv 20
# B18: 6.H2.L2m1 (scFv)
# scFv: B16 scFv with A75R, S76Y, L111T
# notes: pIII not in the entry; order Vλ-linker-VH; also called scFv 6
# Target: T2, GFRα4 isoform b (GFRα4b), Fc fusion (human)
# T2 construct: the entry holds the whole fusion; also called GFR4α4b; GFRα4-Fc
# Test: phage ELISA, immobilized GFRα4b; second token of the cell
# From the text: (§1) To perform these ELISAs, the GFRα4a isoform comprising a portion of GFRα4a (Asn24 -Ser245, UniProt accession #Q9GZZ7-2) was used, followed by a Factor Xa cleavage site/linker, a portion of optimized IgG1 Fc domain (Pro100-Lys330), and 6 His residues for purification. The GFRα4b isoform comprised a portion of GFRα4b (Asn24-Va1274, UniProt #Q9GZZ7-1), followed by a TEV cleavage site linker, and a portion of human IgG1 Fc domain (Asp104-Lys330).
row,Binder,binding result
1,B1,binds
2,B2,binds
3,B3,binds
4,B4,no binding
5,B5,binds
6,B6,binds
7,B7,binds
8,B8,no binding
9,B9,no binding
10,B10,binds
11,B11,no binding
12,B12,no binding
13,B13,binds
14,B14,no binding
15,B15,binds
16,B16,no binding
17,B17,no binding
18,B18,binds

# Target: T1, GFRα4 isoform a (GFRα4a), Fc fusion …
# Test: phage ELISA, immobilized GFRα4a; first token of the cell
# From the text: as §1
row,Binder,binding result
1,B1,binds
2,B2,binds
3,B3,binds
4,B4,no binding
5,B5,binds
6,B6,binds
7,B7,binds
8,B8,no binding
9,B9,no binding
10,B10,binds
11,B11,no binding
12,B12,no binding
13,B14,no binding
14,B15,binds
15,B16,no binding
16,B17,no binding
17,B18,binds
